Source: patent US20240270821A1, “GIP/GLP1/GCG TRI-RECEPTOR AGONISTS AND USES THEREOF” (priority 2023, published 2024)

Tests used:
Experiment in all cases: cell-based or functional assay
[1] = biological target: hGLP-1R (Homo sapiens, UniProt P43220)
[2] = biological target: T1, human GIP receptor (human) (UniProt P48546)
T1 sequence (looked up): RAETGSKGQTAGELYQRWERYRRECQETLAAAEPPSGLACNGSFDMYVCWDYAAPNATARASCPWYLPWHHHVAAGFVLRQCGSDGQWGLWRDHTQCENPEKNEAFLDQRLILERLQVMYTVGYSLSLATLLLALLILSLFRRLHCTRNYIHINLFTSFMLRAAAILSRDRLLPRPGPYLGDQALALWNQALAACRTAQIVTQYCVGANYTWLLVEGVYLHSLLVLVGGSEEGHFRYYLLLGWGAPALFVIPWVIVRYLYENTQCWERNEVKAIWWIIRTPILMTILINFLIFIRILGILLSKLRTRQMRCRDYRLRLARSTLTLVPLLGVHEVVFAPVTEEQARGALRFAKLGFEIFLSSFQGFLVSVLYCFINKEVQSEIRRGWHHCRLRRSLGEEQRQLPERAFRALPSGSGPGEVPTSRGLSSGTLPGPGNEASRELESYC

[3] = biological target: human glucagon receptor (human) (UniProt P47871)
human glucagon receptor (human), sequence (P47871 26-477): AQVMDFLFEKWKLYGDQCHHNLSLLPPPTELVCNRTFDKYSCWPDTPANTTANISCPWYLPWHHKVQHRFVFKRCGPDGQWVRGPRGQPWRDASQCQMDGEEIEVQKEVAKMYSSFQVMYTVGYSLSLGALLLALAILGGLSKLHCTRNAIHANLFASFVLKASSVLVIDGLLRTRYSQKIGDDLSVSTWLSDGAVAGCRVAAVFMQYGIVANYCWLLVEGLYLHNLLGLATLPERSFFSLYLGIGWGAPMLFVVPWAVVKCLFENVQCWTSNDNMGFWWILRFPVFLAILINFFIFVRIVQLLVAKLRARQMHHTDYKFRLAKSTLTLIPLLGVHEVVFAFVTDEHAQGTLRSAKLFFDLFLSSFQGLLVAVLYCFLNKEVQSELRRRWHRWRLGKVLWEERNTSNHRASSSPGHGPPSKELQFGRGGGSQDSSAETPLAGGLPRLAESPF

hGLP-1R, sequence (P43220 24-463): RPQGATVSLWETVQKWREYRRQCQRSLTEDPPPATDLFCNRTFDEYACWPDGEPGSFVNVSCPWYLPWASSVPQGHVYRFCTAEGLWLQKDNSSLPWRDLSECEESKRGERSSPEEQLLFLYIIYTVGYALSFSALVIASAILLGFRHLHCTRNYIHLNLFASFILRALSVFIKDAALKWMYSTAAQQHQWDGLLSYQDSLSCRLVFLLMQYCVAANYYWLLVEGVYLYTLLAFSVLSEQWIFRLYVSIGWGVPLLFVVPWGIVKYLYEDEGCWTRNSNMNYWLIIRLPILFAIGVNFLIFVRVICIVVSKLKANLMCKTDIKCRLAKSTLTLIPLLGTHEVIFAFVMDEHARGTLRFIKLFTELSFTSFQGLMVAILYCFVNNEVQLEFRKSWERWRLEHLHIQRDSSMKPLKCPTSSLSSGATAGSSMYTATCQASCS

Binder	Relative cAMP EC50 [1] [nM]	cAMP Rel EC50 (in the presence of 1% HSA) [1] [nM]	Relative cAMP EC50 [2] [nM]	cAMP Rel EC50 (in the presence of 1% HSA) [2] [nM]	Relative cAMP EC50 [3] [nM]	cAMP Rel EC50 (in the presence of 1% HSA) [3] [nM]	cAMP Rel EC50, nM (in the presence of 1% HSA) [1] [nM]	cAMP Rel EC50, nM (in the presence of 1% HSA) [2] [nM]	cAMP Rel EC50, nM (in the presence of 1% HSA) [3] [nM]
YXQGTFTSDFSXXLDKKAQXAFIEYLLEAGPSSGXPPPSGX (acylated lysine (AEEA)2-γGlu-C18 diacid; non-natural residues; C-terminal amide; synthetic construct; SITE 2: note = 2-Aminoisobutyric Acid; SITE 12: note = L-ornithine; SITE 13: note = alpha-methyl-leucine; SITE 17: note = Lysine is chemically modified through conjugation of the epsilon-amino group of the Lysine side chain with (2-[2-(2-Amino-ethoxy)-ethoxy]-acetyl)2-(gamma-Glu)) [Example 258]	2.71	492	0.154	23.3	7.15	1280	–	–	–
YXQGTFTSDFSXXLDKKAQXAFIEWLLEGGPSSGAPPPEGX (non-natural residues; acylated Lys; C-terminal amide; synthetic construct; SITE 2: note = 2-Aminoisobutyric Acid; SITE 12: note = L-ornithine; SITE 13: note = alpha-methyl-leucine; SITE 17: note = Lysine is chemically modified through conjugation of the epsilon-amino group of the Lysine side chain with (2-[2-(2-Amino-ethoxy)-ethoxy]-acetyl)-(gamma-Glu)) [Example 262]	4.39	400	0.232	40.4	9.77	720	–	–	–
YXQGTFTSDXSXXLDKKAQXAFIEYLLEAGPSSXAPPPSGT (Aib, 4Pal, Orn, αMeL, D-Ala; acylated Lys; C-terminal amide; synthetic construct; SITE 2: note = 2-Aminoisobutyric Acid; SITE 10: note = 3-(4-Pyridyl)-L-alanine; SITE 12: note = L-ornithine; SITE 13: note = alpha-methyl-leucine; SITE 17: note = Lysine is chemically modified through conjugation of the epsilon-amino group of the Lysine side chain with (2-[2-(2-) [Example 275]	4.93	692	0.318	27.7	7.8	882	–	–	–
YXQGTFTSDFSXXLDKKAQXAFIEYLLEGGPSSGAPPPSGT (Aib, Orn, αMeL; (γGlu)2-C18 diacid on Lys; C-terminal amide; synthetic construct; SITE 2: note = 2-Aminoisobutyric Acid; SITE 12: note = L-ornithine; SITE 13: note = alpha-methyl-leucine; SITE 17: note = Lysine is chemically modified through conjugation of the epsilon-amino group of the Lysine side chain with (gamma-Glu)2-CO-(CH2)16-CO2H; SITE 20: note = 2-Am) [Example 260]	3.85	160	0.251	12.4	5.04	162	–	–	–
YXQGTFTSDFSKXLDKKAQXAFIEYLLEGGESSGAPPPSGS (synthetic construct; SITE 2: note = 2-Aminoisobutyric Acid; SITE 13: note = alpha-methyl-leucine; SITE 17: note = Lysine is chemically modified through conjugation of the epsilon-amino group of the Lysine side chain with (2-[2-(2-Amino-ethoxy)-ethoxy]-acetyl)-(gamma-Glu)-CO-(CH2) 16-CO2H; SITE 20: n) [Example 146]	–	–	–	–	–	–	678	74.6	463
YXQGTFTSDFSXXLDKKAQXAFIEWLLEGGSSSGAPPPSGH (Aib, Orn, αMeL; K acylated AEEA-γGlu-C18 diacid; C-amide; synthetic construct; SITE 2: note = 2-Aminoisobutyric Acid; SITE 12: note = L-ornithine; SITE 13: note = alpha-methyl-leucine; SITE 17: note = Lysine is chemically modified through conjugation of the epsilon-amino group of the Lysine side chain with (2-[2-(2-Amino-ethoxy)-ethoxy]-acetyl)-(gamma-Glu)) [Example 270]	3.2	658	0.26	36.5	5	1060	–	–	–
YXQGTFTSDFSXXLDKKAQXAFIEWLLEGGXSSGAPPPSGT (non-natural residues, C-terminal amide, acylated Lys with fatty diacid; synthetic construct; SITE 2: note = 2-Aminoisobutyric Acid; SITE 12: note = L-ornithine; SITE 13: note = alpha-methyl-leucine; SITE 17: note = Lysine is chemically modified through conjugation of the epsilon-amino group of the Lysine side chain with (2-[2-(2-Amino-ethoxy)-ethoxy]-acetyl)-(gamma-Glu)) [Example 268]	3.14	437	0.274	33.7	7.69	1300	–	–	–
YXQGTFTSDFSXXLDKKAQXAFIEYLLEAGPSSGAPPPSGH (C-terminal amide; lysine acylated with AEEA-γ-Glu-C18 diacid; synthetic construct; SITE 2: note = 2-Aminoisobutyric Acid; SITE 12: note = L-ornithine; SITE 13: note = alpha-methyl-leucine; SITE 17: note = Lysine is chemically modified through conjugation of the epsilon-amino group of the Lysine side chain with (2-[2-(2-Amino-ethoxy)-ethoxy]-acetyl)-(gamma-Glu)) [Example 259]	1.47	220	0.114	18.4	2.55	317	–	–	–
YXQGTFTSDFSXXLDKKAQXAFIEYLLEGGPSSGAPPPGGX (C-terminal amide; lysine acylated with AEEA-γ-Glu-C18 diacid; synthetic construct; SITE 2: note = 2-Aminoisobutyric Acid; SITE 12: note = L-ornithine; SITE 13: note = alpha-methyl-leucine; SITE 17: note = Lysine is chemically modified through conjugation of the epsilon-amino group of the Lysine side chain with (2-[2-(2-Amino-ethoxy)-ethoxy]-acetyl)-(gamma-Glu)) [Example 261]	3.12	383	0.29	38.4	5.49	520	–	–	–
YXQGTFTSDFSXXLDKKAQXAFIEWLLEGGHSSGAPPPSGH (Aib, Orn, αMeL; K acylated AEEA-γGlu-C18 diacid; C-terminal amide; synthetic construct; SITE 2: note = 2-Aminoisobutyric Acid; SITE 12: note = L-ornithine; SITE 13: note = alpha-methyl-leucine; SITE 17: note = Lysine is chemically modified through conjugation of the epsilon-amino group of the Lysine side chain with (2-[2-(2-Amino-ethoxy)-ethoxy]-acetyl)-(gamma-Glu)) [Example 269]	3.23	428	0.288	21.9	7.69	1100	–	–	–
YXQGTFTSDFSXXLDKKAQXAFIEWLLEGGXSSGAPPPSGE (Aib, Orn, αMeL, 4Pal; AEEA-γGlu-C18 diacid on Lys; amide; synthetic construct; SITE 2: note = 2-Aminoisobutyric Acid; SITE 12: note = L-ornithine; SITE 13: note = alpha-methyl-leucine; SITE 17: note = Lysine is chemically modified through conjugation of the epsilon-amino group of the Lysine side chain with (2-[2-(2-Amino-ethoxy)-ethoxy]-acetyl)-(gamma-Glu)) [Example 267]	5.86	1020	0.279	55.5	5.74	1380	–	–	–
YXQGTFTSDFSXXLDKKAQXAFIEWLLEAGSSSGAPPPSGT (C-terminal amide; lysine acylated with AEEA-γ-Glu-C18 diacid; synthetic construct; SITE 2: note = 2-Aminoisobutyric Acid; SITE 12: note = L-ornithine; SITE 13: note = alpha-methyl-leucine; SITE 17: note = Lysine is chemically modified through conjugation of the epsilon-amino group of the Lysine side chain with (2-[2-(2-Amino-ethoxy)-ethoxy]-acetyl)-(gamma-Glu)) [Example 263]	1.32	257	0.169	25.7	7.53	893	–	–	–
YXQGTFTSDXSXXLDKKAQXAFIEYLLEAGPSSGAPPPSGX (non-natural residues; lipidated Lys; C-terminal amide; synthetic construct; SITE 2: note = 2-Aminoisobutyric Acid; SITE 10: note = 3-(4-Pyridyl)-L-alanine; SITE 12: note = L-ornithine; SITE 13: note = alpha-methyl-leucine; SITE 17: note = Lysine is chemically modified through conjugation of the epsilon-amino group of the Lysine side chain with (2-[2-(2-) [Example 274]	4.9	560	0.296	27.6	9.37	1120	–	–	–
